Positions count from the first letter of the chain named. Names may count otherwise.
T1: TNFR1 (Homo sapiens, UniProt P19438)
T1 chain: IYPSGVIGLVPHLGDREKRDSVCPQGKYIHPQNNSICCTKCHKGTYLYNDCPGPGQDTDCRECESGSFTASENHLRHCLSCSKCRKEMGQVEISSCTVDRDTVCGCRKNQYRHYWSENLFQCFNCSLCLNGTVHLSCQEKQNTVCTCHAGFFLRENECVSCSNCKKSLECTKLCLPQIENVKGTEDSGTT

B1: E89P (designed binder)
chain: SMEEEVEKAAKEYEKKKKEAIEKHLEKLKAKDKEAAERFLKELEEAAKEYAKDEAKTMSEEEAKRRAKKYKEKVLLSELSEEEQKEIKPAEEKLVRTILKYVEEAAK
B2: K11D (designed binder)
chain: B1 chain with K11D, P89E
B3: V6H (designed binder)
chain: B1 chain with V6H, P89E
B4: R96H (designed binder)
chain: B1 chain with P89E, R96H
B5: E44T (designed binder)
chain: B1 chain with E44T, P89E
B6: I21S (designed binder)
chain: B1 chain with I21S, P89E
B7: E104Q (designed binder)
chain: B1 chain with P89E, E104Q
B8: M58C (designed binder)
chain: B1 chain with M58C, P89E
B9: A46M (designed binder)
chain: B1 chain with A46M, P89E
B10: K100F (designed binder)
chain: B1 chain with P89E, K100F
B11: K33P (designed binder)
chain: B1 chain with K33P, P89E
B12: E82Q (designed binder)
chain: B1 chain with E82Q, P89E
B13: E103F (designed binder)
chain: B1 chain with P89E, E103F
B14: S1P (designed binder)
chain: B1 chain with S1P, P89E
B15: K56P (designed binder)
chain: B1 chain with K56P, P89E
B16: E5K (designed binder)
chain: B1 chain with E5K, P89E
B17: R66G (designed binder)
chain: B1 chain with R66G, P89E
B18: E72T (designed binder)
chain: B1 chain with E72T, P89E
B19: K15W (designed binder)
chain: B1 chain with K15W, P89E
B20: A106E (designed binder)
chain: B1 chain with P89E, A106E
B21: D53T (designed binder)
chain: B1 chain with D53T, P89E
B22: I21T (designed binder)
chain: B1 chain with I21T, P89E
B23: A10C (designed binder)
chain: B1 chain with A10C, P89E
B24: V6T (designed binder)
chain: B1 chain with V6T, P89E

Target: T1, TNFR1
Assay: yeast display SC50

| apparent Kd (screen) [nM] | Binder |
| --- | --- |
| 10.4 | B1 |
| 0.446 | B2 |
| 0.446 | B3 |
| 2.48 | B4 |
| 0.956 | B5 |
| 0.446 | B6 |
| 1.05 | B7 |
| 2.73 | B8 |
| 0.117 | B9 |
| 1.27 | B10 |
| 0.593 | B11 |
| 0.49 | B12 |
| 1.05 | B13 |
| 0.539 | B14 |
| 24.4 | B15 |
| 0.446 | B16 |
| 7.07 | B17 |
| 1.27 | B18 |
| 1.16 | B19 |
| 1.27 | B20 |
| 2.73 | B21 |
| 0.49 | B22 |
| 1.05 | B23 |
| 0.49 | B24 |
